Patent US20180188270A1, “DIAGNOSTIC TEST FOR ALZHEIMER'S DISEASE BASED ON IDENTIFICATION OF A PROTEOLYTIC PATHWAY” (Health Research, Inc., priority 2015, published 2018)

Experiments:
plasma Aβ1-42 = assay: Plasma Aβ1-42 concentration in mice by ELISA; type: in vivo, mouse; conditions: FXII−/− mice, CCl4 0.5 g/kg or hPEPD 4 mg/kg i.p., 24 h
Protocol: Animal studies. All animal studies were performed in accordance with protocols approved by the Institutional Animal Care and Use Committee at Roswell Park Cancer Institute. Male mice at 7-8 weeks of age were used, including wild type (WT) mice (C57BL/6), and mice deficient in FXII (C57BL/6-FXII^−/−) or FVII (C57BL/6-FVII^tTA/tTA). WT C57BL/6 mice were purchased from Taconic. C57BL/6-FXII^−/− mice and C57BL/6-FVII^tTA/tTA mice were bred in our own facility and genotyped. […] CCl4 was dissolved in corn oil, whereas all other substances were dissolved in PBS. The vehicle or the test substance was given to mice in 0.1 ml volume per 20 g body weight. Blood was collected from the mice at specific times by cardiac puncture at the time of sacrifice by carbon dioxide, and heart, liver and kidney were also collected from some of the mice. Blood was collected into K3 EDTA-containing tubes (Multivette 600 from Sarstedt), unless specified otherwise. All blood samples were promptly centrifuged to obtain plasma samples.
Measurement of plasma levels of PEPD, SRC, Aβ1-42 and FI. […] The plates were washed three times with phosphate buffered saline tween-20 (PBST) and the coated wells were blocked by incubation with 200 μl/well of 1% BSA in PBS for at least 2 h at RT. After another round of wash with PBST, the plates were incubated with appropriately diluted Aβ1-42 standard, SRC standard or plasma samples (100 μl/well) for 2 h at RT. The plates were then washed with PBST and incubated with an anti-Aβ1-42 rabbit polyclonal antibody (sc-9129) or anti-SRC rabbit monoclonal antibody (2123) at 100 μl/well for 2 h at RT. The plates were washed again with PBST, and each well was incubated with a goat anti-rabbit IgG-HRP conjugate (100 μl) for 1 h at RT. After yet another round of wash with PBST, each well was incubated with 100 μl of HRP substrate 3,3′,5,5′-tetramethylbenzedine (Cell Signaling, 7004). Upon adequate color development, 100 μl of stop solution (Cell Signaling, 7002) was added to each well, and absorbance at 450 nm was promptly recorded by a microtiter plate reader.

[1] = hPEPD-degrading activity of mouse plasma samples; type: in vitro ADME
Protocol: Measurement of in vitro degradation of hPEPD, mSRC and hAβ1-42. To determine whether a blood coagulation factor degrades hPEPD, hPEPD at 90 nM or lower concentrations (10 or 40 nM) was incubated with solvent, 100 nM FIIa, 100 nM FXa, 10 nM FVIIa with or without 10 nM TF, or 10 nM FVII with or without 10 nM TF and/or 100 nM FIIa in PBS in a total volume of 100 μl containing 5 mM CaCl2 for desired times at RT. […] To compare the hPEPD-degrading activities of different plasma samples, 9.2 pmol of hPEPD was incubated with 100 μl of plasma from WT mice or FVII^tTA/tTA mice at RT, with or without FIIa or FXa (10 pmol), and to maximize detection of any activity, all incubations lasted for 24 h. […] Although some clotting activity may take place before and during centrifugation of the blood sample, our experiments indicate that activation of coagulation factors, e.g., FVII, is very limited (see FIG. 5A). To measure remaining hPEPD, the incubated samples were cleared of potential fibrin clots by centrifugation and then analyzed by SDS-PAGE and silver staining (using the LC 6070 kit from Invitrogen), IB or measurement of hPEPD enzymatic activity. hPEPD enzymatic activity was measured using glycyl-proline as a substrate (as described in Zbucka et al., Folia Histochem Cytobiol 2007; 45 Suppl 1: S181-185). The precipitates from each incubated sample were washed with PBS twice and then resuspended in 2.5% SDS (20 μper sample); each solution was mixed with 10 μl loading dye and analyzed for hPEPD by IB, using pure hPEPD as a standard and factor FXIIIa as a binding control, respectively.
To measure degradation of hPEPD in plasma samples with or without removal of FVII and FVIIa, plasma samples from WT mice as described above were either used directly or immunodepleted of FVII and FVIIa before use. To remove FVII and FVIIa from plasma, 500 μl plasma was incubated with an antibody specific for FVII/FVIIa (GTX79785; 10 μg) and protein A sepharose beads for 1 h at RT. Following centrifugation at 13,000×g for 1 min at 4° C., the supernatant fraction was collected and analyzed by IB to confirm depletion of FVII and FVIIa. Next, 9.2 pmol of hPEPD was incubated with 100 μl of regular plasma or the plasma depleted of FVII/FVIIa, with or without FIIa (10 pmol) for 24 h at RT. Potential fibrin clots formed during the incubation was removed by centrifugation at the end of the incubation, and remaining hPEPD was measured by hPEPD enzymatic activity analysis.

FX, FII or FVII = assay: Potential activation of FX, FII or FVII by hPEPD (IB); type: biochemical, human; conditions: hPEPD 40 nM, 5 mM CaCl2, RT, 24 h
Protocol: Measurement of Potential Activation of FX, FII or FVII by hPEPD. hPEPD (40 nM) was incubated with FX, FIT or FVII […] in PBS at RT in the presence of 5 mM CaCl2 for 24 h, followed by IB analysis for potential activation/cleavage of each coagulation factor. FXa, FIIa and FVIIa were used as positive controls in the experiments.

FXII = FXII activation, chromogenic assay; type: biochemical, human
Protocol: Measurement of FXII activation. […] FXII activation was followed for 3 h at RT by monitoring the conversion of the chromogenic substrate at 405 nm by a microtiter plate reader.
Each value is mean±SD (n=3).

FVII = molecular target: T1, FVII (Homo sapiens, UniProt P08709); assay: hPEPD degradation by FVII with or without TF and/or FIIa; type: biochemical; conditions: 24 h
T1 construct: purchased Haematologic Technologies HCVII-0030
T1 sequence (P08709 61-466): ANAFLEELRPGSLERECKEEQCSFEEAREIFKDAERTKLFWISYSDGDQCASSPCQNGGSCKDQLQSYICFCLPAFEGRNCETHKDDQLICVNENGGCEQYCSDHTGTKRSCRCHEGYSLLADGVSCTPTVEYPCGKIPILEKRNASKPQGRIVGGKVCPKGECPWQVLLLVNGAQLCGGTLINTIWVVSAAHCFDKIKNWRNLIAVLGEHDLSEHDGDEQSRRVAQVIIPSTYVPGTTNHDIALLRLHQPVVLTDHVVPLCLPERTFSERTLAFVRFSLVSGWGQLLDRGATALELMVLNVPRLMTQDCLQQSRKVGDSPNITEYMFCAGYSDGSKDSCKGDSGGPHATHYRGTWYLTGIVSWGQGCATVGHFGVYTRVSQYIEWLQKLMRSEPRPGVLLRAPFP
Protocol: Measurement of in vitro degradation of hPEPD, mSRC and hAβ1-42. To determine whether a blood coagulation factor degrades hPEPD, hPEPD at 90 nM or lower concentrations (10 or 40 nM) was incubated with solvent, 100 nM FIIa, 100 nM FXa, 10 nM FVIIa with or without 10 nM TF, or 10 nM FVII with or without 10 nM TF and/or 100 nM FIIa in PBS in a total volume of 100 μl containing 5 mM CaCl2 for desired times at RT. […] To compare the hPEPD-degrading activities of different plasma samples, 9.2 pmol of hPEPD was incubated with 100 μl of plasma from WT mice or FVII^tTA/tTA mice at RT, with or without FIIa or FXa (10 pmol), and to maximize detection of any activity, all incubations lasted for 24 h. […] To measure remaining hPEPD, the incubated samples were cleared of potential fibrin clots by centrifugation and then analyzed by SDS-PAGE and silver staining (using the LC 6070 kit from Invitrogen), IB or measurement of hPEPD enzymatic activity. hPEPD enzymatic activity was measured using glycyl-proline as a substrate (as described in Zbucka et al., Folia Histochem Cytobiol 2007; 45 Suppl 1: S181-185). The precipitates from each incubated sample were washed with PBS twice and then resuspended in 2.5% SDS (20 μper sample); each solution was mixed with 10 μl loading dye and analyzed for hPEPD by IB, using pure hPEPD as a standard and factor FXIIIa as a binding control, respectively.

B1: hPEPD: recombinant human prolidase (PEPD), 6xHis tagged to the carboxy terminus (protein, UniProt P12955 2-493, looked up)
Xaa-Pro dipeptidase: AAATGPSFWLGNETLKVPLALFALNRQRLCERLRKNPAVQAGSIVVLQGGEETQRYCTDTGVLFRQESFFHWAFGVTEPGCYGVIDVDTGKSTLFVPRLPASHATWMGKIHSKEHFKEKYAVDDVQYVDEIASVLTSQKPSVLLTLRGVNTDSGSVCREASFDGISKFEVNNTILHPEIVECRVFKTDMELEVLRYTNKISSEAHREVMKAVKVGMKEYELESLFEHYCYSRGGMRHSSYTCICGSGENSAVLHYGHAGAPNDRTIQNGDMCLFDMGGEYYCFASDITCSFPANGKFTADQKAVYEAVLRSSRAVMGAMKPGVWWPDMHRLADRIHLEELAHMGILSGSVDAMVQAHLGAVFMPHGLGHFLGIDVHDVGGYPEGVERIDEPGLRSLRTARHLQPGMVLTVEPGIYFIDHLLDEALADPARASFLNREVLQRFRGFGGVRIEEDVVVTDSGIELLTCVPRTVEEIEACMAGCDKAFTPFSGPK
modifications: C-terminal 6xHis tag
notes: recombinant human prolidase (PEPD), 6xHis tagged to the carboxy terminus
average plasma level of mAβ1-42, increase (plasma Aβ1-42): remained unchanged
hPEPD degradation in plasma after adding human FIIa or FXa ([1]; FVII tTA/tTA plasma): neither factor was effective
hPEPD degradation after incubation with plasma ([1]; FVII tTA/tTA plasma, 24 h, RT): no degradation of hPEPD could be detected
hPEPD degradation in plasma after adding human FIIa or FXa ([1]; WT plasma): markedly enhanced hPEPD degradation
hPEPD remained after incubation with plasma ([1]; WT plasma, 24 h, RT): 88.8%
hPEPD degradation in plasma after removal of FVII/FVIIa by immunodepletion ([1]; WT plasma, with or without FIIa): abolished the residual hPEPD degradation or FIIa-enabled hPEPD degradation
direct activation of FX, FII or FVII (FX, FII or FVII): does not directly activate any of these factors
FXII activation (FXII; FXII 0.97 nM, ZnCl2-containing PBS, RT): did not differ in activating FXII
Zn2+ requirement of FXII activation (FXII; with or without ZnCl2 15 μM, IB): required Zn^2+
hPEPD degradation by FVII with or without TF after adding FIIa (FVII; FIIa 100 nM): caused marked hPEPD degradation
proteolysis of hPEPD by FVII with or without TF (FVII; FVII 10 nM, TF 10 nM): showed no proteolytic activity towards hPEPD
